This assay addresses T1, mouse TEAD4(210–427), as purified (SPR) (mouse, UniProt Q62296 210-427).
T1 construct: cDNA fused with a 6x His-tag and a 3C protease cleavage site in pOPIN S; No tag cleavage is told for the protein used in SPR; cleavage is told only for the crystallised complex; also called mTEAD4; source: E. coli BL21 DE3 RIL, purified (His Trap, SEC)
The assay can be described thus: SPR; GST-hTEAD1 and mTEAD4 covalently tethered (NHS/EDC) on CM5 chips, 2000–3000 RU; peptides as analytes, threefold dilutions, typically 30 µM top concentration; 10 mM HEPES, 150 mM NaCl, 0.05% Tween-20, pH 7.4, 0.3% DMSO, 20 °C; steady-state fit, 1:1 model. The conditions noted are these: both partners purified. (In general: Surface plasmon resonance follows binding to a sensor surface in real time, without labels.)

T1 sequence (Q62296 210-427): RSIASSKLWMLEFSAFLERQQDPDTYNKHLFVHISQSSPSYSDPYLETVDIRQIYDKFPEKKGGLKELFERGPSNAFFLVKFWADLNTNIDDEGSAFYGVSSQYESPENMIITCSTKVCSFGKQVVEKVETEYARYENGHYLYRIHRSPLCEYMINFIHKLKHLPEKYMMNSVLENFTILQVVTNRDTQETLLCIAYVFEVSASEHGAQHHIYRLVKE

B1: VGL4(203–256), full-length VGL4-derived TEAD binding sequence (peptide 1) (peptide, UniProt Q80V24 203-256, looked up)
peptide: DPVVEEHFRRSLGKNYKEPEPAPNSVSITGSVDDHFAKALGDTWLQIKAAKDSA
notes: mouse and human VGL4 are said to be identical in this stretch; Made on Rink amide resin, so probably a C-terminal amide; source: synthetic peptide (Fmoc solid-phase synthesis, RP-HPLC purified)
As to B1, binding was characterised by a dissociation constant (Kd) of 2000 nM.

What is called Kd is the free concentration of one partner at which half of the binding sites on the other are occupied at equilibrium, for simple one-to-one binding. Low values mean tighter binding, high ones weaker binding.
